This is an account of results in publication PMC4431388, “Effect of the distal histidine on the peroxidatic activity of monomeric cytoglobin” (F1000Research, 2015).

Where a chain is given by its changes, count along the chain named. In names and notes the source's numbering stands.

This series concerns the molecule itself. Description: SEC; G75 Superdex column equilibrated with 0.1 M sodium phosphate buffer pH 7.4; absorbance at 280 nm; monomer to dimer of the recombinant protein as purified. (Size exclusion chromatography separates by hydrodynamic size, large species first.)

B1: human cytoglobin, wildtype (natural protein, UniProt Q8WWM9 1-190, looked up)
chain: MEKVPGEMEIERRERSEELSEAERKAVQAMWARLYANCEDVGVAILVRFFVNFPSAKQYFSQFKHMEDPLEMERSPQLRKHACRVMGALNTVVENLHDPDKVSSVLALVGKAHALKHKVEPVYFKILSGVILEVVAEEFASDFPPETQRAWAKLRGLIYSHVTAAYKEVGWVQQVPNATTPPATLPSSGP
notes: cytoglobin, human; gene bought from OriGene and transferred into pET28a; monomer runs at 21 kDa; Haem protein; The preparation holds monomer, dimer and a minor polymerised fraction; also called Cygb; WT Cygb
Take B1: the “stoichiometry N” value is 2.

B2: human cytoglobin H81Y (natural protein, UniProt Q8WWM9 1-190, looked up)
chain: B1 chain with H81Y
notes: cytoglobin, human, distal histidine mutant; Haem protein; also called H81Y Cygb; histidine 81 to tyrosine mutation
As for B2, the binding result was “binds”.

B3: human cytoglobin H81V (natural protein, UniProt Q8WWM9 1-190, looked up)
chain: B1 chain with H81V
notes: cytoglobin, human, distal histidine mutant; Haem protein; also called H81V Cygb; histidine 81(E7) to valine mutation
Consider B3, for which the binding result was “binds”.

Usually stoichiometry N stands for the number of molecules, sites or subunits per partner or assembly.
